Publication PMC5589592, “Direct inhibition of STAT signaling by platinum drugs contributes to their anti-cancer activity” (Oncotarget, 2017)
Square brackets hold non-standard residues; d marks the D form. Ends that are not written are not given here. pY = N[C@@H](Cc1ccc(OP(=O)(O)O)cc1)C(=O)O

Biological target: T1, recombinant human STAT3, full-length, biotinylated through an N-terminal avi-tag (human, UniProt P40763 1-770, biotin on the avi-tag)
T1 construct: also called biotinylated STAT; full-length protein; not shown: avi-tag, N-terminal, kept
T1 sequence (P40763 whole entry): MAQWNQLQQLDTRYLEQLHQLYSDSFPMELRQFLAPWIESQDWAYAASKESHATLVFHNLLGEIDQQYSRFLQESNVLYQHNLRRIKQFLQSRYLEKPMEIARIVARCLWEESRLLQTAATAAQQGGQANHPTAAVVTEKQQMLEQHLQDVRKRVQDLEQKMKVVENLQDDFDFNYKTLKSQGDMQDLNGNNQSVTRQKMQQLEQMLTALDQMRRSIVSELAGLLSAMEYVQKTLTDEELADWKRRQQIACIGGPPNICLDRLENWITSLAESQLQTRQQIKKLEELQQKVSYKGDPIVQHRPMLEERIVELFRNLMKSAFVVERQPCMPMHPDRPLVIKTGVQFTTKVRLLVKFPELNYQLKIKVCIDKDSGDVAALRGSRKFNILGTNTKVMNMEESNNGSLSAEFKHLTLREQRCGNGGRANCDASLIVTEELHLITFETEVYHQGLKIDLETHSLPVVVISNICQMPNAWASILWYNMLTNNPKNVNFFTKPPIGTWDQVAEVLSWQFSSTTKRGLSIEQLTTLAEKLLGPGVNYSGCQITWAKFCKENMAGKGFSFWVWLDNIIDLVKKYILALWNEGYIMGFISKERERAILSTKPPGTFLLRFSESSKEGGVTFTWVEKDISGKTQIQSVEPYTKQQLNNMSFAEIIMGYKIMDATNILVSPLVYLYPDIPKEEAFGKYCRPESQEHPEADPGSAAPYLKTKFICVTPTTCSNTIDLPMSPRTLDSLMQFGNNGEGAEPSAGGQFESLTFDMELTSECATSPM
Assay: AlphaScreen or HTRF; biotinylated STAT incubated 90 min with (or without) a platinum compound and FITC-pTyr peptide, then streptavidin-coated donor beads and anti-FITC acceptor beads; detection at 570 nm; cisplatin 1, 3, 10 or 30 uM inhibited the signal
Settings: both partners purified

binding result: binds
B1: 5-carboxyfluorescein (FITC)-GpYLPQTV phospho-tyrosine peptide probe (STAT3) (peptide)
peptide: G[pY]LPQTV
modifications: not fully specified (N-terminus)
notes: pTyr peptide that corresponds with a STAT docking site of the upstream receptor; also called FITC-pTyr peptide; pTyr
